Measurements from patent publication US20110071283.

Tested on: fibrinogen

## human thrombin
  SDS-PAGE analysis of hydrolysis of fibrinogen (Aα-strand): has a similar strength to human thrombin
